# In patent publication US9062100B2, “Anti-human TROP-2 antibody having anti-tumor activity in vivo” (LIVTECH, INC., dated 2015):
# T1: human TROP-2 (hTROP-2) (human)
# T1 chain: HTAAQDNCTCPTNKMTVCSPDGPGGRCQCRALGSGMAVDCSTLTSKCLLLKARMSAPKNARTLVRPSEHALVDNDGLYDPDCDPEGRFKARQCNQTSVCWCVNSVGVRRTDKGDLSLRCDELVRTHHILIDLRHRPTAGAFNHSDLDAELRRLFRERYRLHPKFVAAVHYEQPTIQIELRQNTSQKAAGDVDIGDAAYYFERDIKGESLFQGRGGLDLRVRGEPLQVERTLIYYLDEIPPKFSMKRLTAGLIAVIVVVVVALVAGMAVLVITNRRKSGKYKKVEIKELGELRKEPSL
# T2: Table 11 peptide No. 1 (human, not fully specified)
# T2 peptide: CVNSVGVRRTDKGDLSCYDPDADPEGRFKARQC
# T3: Table 11 peptide No. 7 (human)
# T3 peptide: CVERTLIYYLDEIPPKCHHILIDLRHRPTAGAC
# T4: Table 11 peptide No. 17 (human)
# T4 peptide: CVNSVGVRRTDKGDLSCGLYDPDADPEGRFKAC
# T5: Table 11 peptide No. 11 (human)
# T5 peptide: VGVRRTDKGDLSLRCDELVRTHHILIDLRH
# T6: Table 11 peptide No. 6 (human)
# T6 peptide: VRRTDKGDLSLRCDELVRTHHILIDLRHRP
# T7: Table 11 peptide No. 22 (human)
# T7 peptide: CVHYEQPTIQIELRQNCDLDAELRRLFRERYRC
# T8: Table 11 peptide No. 21 (human)
# T8 peptide: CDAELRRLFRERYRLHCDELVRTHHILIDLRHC
# T9: Table 11 peptide No. 13 (human)
# T9 peptide: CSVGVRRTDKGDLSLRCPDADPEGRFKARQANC
# T10: Table 11 peptide No. 10 (human)
# T10 peptide: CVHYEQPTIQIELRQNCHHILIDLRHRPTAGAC
# T11: Table 11 peptide No. 8 (human)
# T11 peptide: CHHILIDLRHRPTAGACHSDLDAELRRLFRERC
# T12: Table 11 peptide No. 12 (human)
# T12 peptide: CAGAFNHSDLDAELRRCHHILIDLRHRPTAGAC
# T13: Table 11 peptide No. 20 (human)
# T13 peptide: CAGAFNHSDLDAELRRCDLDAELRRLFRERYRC
# T14: Table 11 peptide No. 25 (human)
# T14 peptide: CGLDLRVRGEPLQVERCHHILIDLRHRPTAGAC
# T15: Table 11 peptide No. 3 (human)
# T15 peptide: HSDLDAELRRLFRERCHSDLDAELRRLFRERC
# T16: Table 11 peptide No. 2 (human)
# T16 peptide: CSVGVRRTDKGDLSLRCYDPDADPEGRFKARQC
# T17: Table 11 peptide No. 4 (human)
# T17 peptide: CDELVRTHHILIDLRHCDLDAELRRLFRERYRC
# T18: Table 11 peptide No. 26 (human)
# T18 peptide: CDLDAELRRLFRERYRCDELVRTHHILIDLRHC
# T19: Table 11 peptide No. 15 (human)
# T19 peptide: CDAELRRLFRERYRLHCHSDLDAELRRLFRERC
# T20: Table 11 peptide No. 23 (human)
# T20 peptide: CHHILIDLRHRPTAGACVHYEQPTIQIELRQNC
# T21: Table 11 peptide No. 19 (human)
# T21 peptide: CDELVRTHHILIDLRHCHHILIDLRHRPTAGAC
# T22: Table 11 peptide No. 18 (human)
# T22 peptide: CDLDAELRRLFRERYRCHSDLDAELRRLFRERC
# T23: Table 11 peptide No. 9 (human)
# T23 peptide: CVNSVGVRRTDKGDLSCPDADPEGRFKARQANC
# T24: Table 11 peptide No. 14 (human)
# T24 peptide: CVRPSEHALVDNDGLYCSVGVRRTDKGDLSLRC
# T25: recombinant protein of the extracellular region of hTROP-2 (human)
# T25 sequence: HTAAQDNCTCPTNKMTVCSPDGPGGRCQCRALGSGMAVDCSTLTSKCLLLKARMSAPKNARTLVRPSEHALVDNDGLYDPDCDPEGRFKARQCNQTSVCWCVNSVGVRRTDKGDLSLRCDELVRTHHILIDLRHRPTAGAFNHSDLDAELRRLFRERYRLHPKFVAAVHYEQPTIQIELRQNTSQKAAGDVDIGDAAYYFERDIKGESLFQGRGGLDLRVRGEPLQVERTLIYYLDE
# B1: anti-hTROP-2 monoclonal antibody T6-16 (antibody, V domains shown)
# VH: EVQLQQSGPELVKPGASVKISCKASGYTFTDYNMHWVKQSHGKNLEWIGYIYPYNGGTGYNQRFKSRATMTVDKSSSTAYMELRSLTSDDSAVYYCAREDYGSSPSYAMDYWGQGTSVIVSS
# VL: DVVMTQTPLSLPVSLGDQASISCRSSQSLVHGNGNTYLHWYLQKPGQSPKLLIYKVSNRFSGVPDRFSGSGSGTDFTLKISRVEAEDLGVYFCSQTTHVPTFGSGTKLEIK
# Experiments:
# human TROP-2 (hTROP-2) [1] = target: T1, human TROP-2 (hTROP-2); assay: FACS on BxPC-3 cells
# Table 11 peptide No. 1 = target: T2, Table 11 peptide No. 1; assay: PEPSCAN CLIPS peptide ELISA
# Table 11 peptide No. 7 = target: T3, Table 11 peptide No. 7; assay: PEPSCAN CLIPS peptide ELISA
# Table 11 peptide No. 17 = target: T4, Table 11 peptide No. 17; assay: PEPSCAN CLIPS peptide ELISA
# Table 11 peptide No. 11 = target: T5, Table 11 peptide No. 11; assay: PEPSCAN CLIPS peptide ELISA
# Table 11 peptide No. 6 = target: T6, Table 11 peptide No. 6; assay: PEPSCAN CLIPS peptide ELISA
# Table 11 peptide No. 22 = target: T7, Table 11 peptide No. 22; assay: PEPSCAN CLIPS peptide ELISA
# Table 11 peptide No. 21 = target: T8, Table 11 peptide No. 21; assay: PEPSCAN CLIPS peptide ELISA
# Table 11 peptide No. 13 = target: T9, Table 11 peptide No. 13; assay: PEPSCAN CLIPS peptide ELISA
# Table 11 peptide No. 10 = target: T10, Table 11 peptide No. 10; assay: PEPSCAN CLIPS peptide ELISA
# Table 11 peptide No. 8 = target: T11, Table 11 peptide No. 8; assay: PEPSCAN CLIPS peptide ELISA
# Table 11 peptide No. 12 = target: T12, Table 11 peptide No. 12; assay: PEPSCAN CLIPS peptide ELISA
# Table 11 peptide No. 20 = target: T13, Table 11 peptide No. 20; assay: PEPSCAN CLIPS peptide ELISA
# Table 11 peptide No. 25 = target: T14, Table 11 peptide No. 25; assay: PEPSCAN CLIPS peptide ELISA
# Table 11 peptide No. 3 = target: T15, Table 11 peptide No. 3; assay: PEPSCAN CLIPS peptide ELISA
# Table 11 peptide No. 2 = target: T16, Table 11 peptide No. 2; assay: PEPSCAN CLIPS peptide ELISA
# Table 11 peptide No. 4 = target: T17, Table 11 peptide No. 4; assay: PEPSCAN CLIPS peptide ELISA
# Table 11 peptide No. 26 = target: T18, Table 11 peptide No. 26; assay: PEPSCAN CLIPS peptide ELISA
# Table 11 peptide No. 15 = target: T19, Table 11 peptide No. 15; assay: PEPSCAN CLIPS peptide ELISA
# Table 11 peptide No. 16 = Table 11 peptide No. 16 (human); assay: PEPSCAN CLIPS peptide ELISA
# Table 11 peptide No. 23 = target: T20, Table 11 peptide No. 23; assay: PEPSCAN CLIPS peptide ELISA
# Table 11 peptide No. 24 = Table 11 peptide No. 24 (human); assay: PEPSCAN CLIPS peptide ELISA
# Table 11 peptide No. 19 = target: T21, Table 11 peptide No. 19; assay: PEPSCAN CLIPS peptide ELISA
# Table 11 peptide No. 18 = target: T22, Table 11 peptide No. 18; assay: PEPSCAN CLIPS peptide ELISA
# Table 11 peptide No. 9 = target: T23, Table 11 peptide No. 9; assay: PEPSCAN CLIPS peptide ELISA
# Table 11 peptide No. 14 = target: T24, Table 11 peptide No. 14; assay: PEPSCAN CLIPS peptide ELISA
# [2] = target: T25, recombinant protein of the extracellular region of hTROP-2 (human); assay: ELISA of free antibody after equilibration with antigen in solution
# human TROP-2 (hTROP-2) [3] = target: T1, human TROP-2 (hTROP-2); assay: FACS on PK-59 cells
# Chain of Table 11 peptide No. 24 (human) (peptide, as listed by the source): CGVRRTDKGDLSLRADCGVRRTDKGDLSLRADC
# Chain of Table 11 peptide No. 16 (human) (peptide, as listed by the source): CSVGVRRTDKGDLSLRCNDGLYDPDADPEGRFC
binder,measurement,setting,value
B1,"mean fluorescence intensity, times that with PE-labeled anti-mouse IgG only",human TROP-2 (hTROP-2) [1],25 times
same,binding of T6-16,Table 11 peptide No. 1,1070
same,binding of T6-16,Table 11 peptide No. 7,626
same,binding of T6-16,Table 11 peptide No. 17,553
same,binding of T6-16,Table 11 peptide No. 11,601
same,binding of T6-16,Table 11 peptide No. 6,670
same,binding of T6-16,Table 11 peptide No. 22,526
same,binding of T6-16,Table 11 peptide No. 21,527
same,binding of T6-16,Table 11 peptide No. 13,585
same,binding of T6-16,Table 11 peptide No. 10,602
same,binding of T6-16,Table 11 peptide No. 8,620
same,binding of T6-16,Table 11 peptide No. 12,592
same,binding of T6-16,Table 11 peptide No. 20,529
same,binding of T6-16,Table 11 peptide No. 25,521
same,binding of T6-16,Table 11 peptide No. 3,714
same,binding of T6-16,Table 11 peptide No. 2,786
same,binding of T6-16,Table 11 peptide No. 4,713
same,binding of T6-16,Table 11 peptide No. 26,516
same,binding of T6-16,Table 11 peptide No. 15,566
same,binding of T6-16,Table 11 peptide No. 16,559
same,binding of T6-16,Table 11 peptide No. 23,524
same,binding of T6-16,Table 11 peptide No. 24,524
same,binding of T6-16,Table 11 peptide No. 19,534
same,binding of T6-16,Table 11 peptide No. 18,534
same,binding of T6-16,Table 11 peptide No. 9,611
same,binding of T6-16,Table 11 peptide No. 14,573
same,Kd,[2],4.3 pM
same,"mean fluorescence intensity, times that with PE-labeled anti-mouse IgG only",human TROP-2 (hTROP-2) [3],59 times
